# Measured values taken from the supplement of paper PMC10567573.
# B1: PCDHGA10 (parent)
# chain: FHELQMQVTASDSGDPPLSSNVSL
# B2: ZBTB22 (parent)
# chain: FSSSSQEAFAASAVGSGERRGGGP
# Variants of: B1
# Experiment: protein stability index of a GFP-peptide fusion (GPS, HEK-293T) (PSI 1-6); higher = more stable
# Details: c terminus: a fixed tail appended
# 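Note: lentivirally expressed fusions sorted by FACS into six bins by GFP to DsRed ratio, PSI derived from sequencing read proportions per bin multiplied by bin number.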
row,Variant,protein stability index
1,L18N,2.34
2,L18K,2.31
3,L18S,3.29
4,L18C,2.39
5,L18H,3.04
6,L18E,2.53
7,L18A,2.5
8,L18I,2.33
9,L18M,2.31
10,T9F,2.63
11,T9E,3.53
12,T9P,3.32
13,T9Q,2.73
14,T9K,2.65
15,S11F,1.55
16,S11T,2.4
17,S11E,2.82
18,S11L,2.27
19,S11N,2.03
20,S11D,2.3
21,F1Q,4.62
22,F1A,4.58
23,F1M,4.06
24,F1E,5.2
25,F1P,4.8

row,Variant,protein stability index
1,F1R,4.66
2,F1C,3.83
3,F1H,4.61
4,P16Y,1.59
5,P16L,1.57
6,P16D,2.49
7,A10K,2.41
8,A10C,1.74
9,A10H,2.51
10,A10S,2.35
11,A10T,2.13
12,A10W,1.86
13,P17F,1.97
14,P17S,2.13
15,P17R,1.79
16,P17V,1.78
17,P17T,1.93
18,S23C,1.72
19,S23V,2.05
20,S23Y,1.75
21,S23P,2.82
22,S23D,3.16
23,S23W,2.08
24,S23N,2.46
25,E3H,1.75

row,Variant,protein stability index
1,E3P,1.97
2,E3A,1.91
3,E3N,1.7
4,E3W,2.54
5,E3T,1.82
6,E3K,2.21
7,M6R,3
8,M6K,2.52
9,M6Y,2.46
10,M6P,3.87
11,S13Y,1.88
12,S13A,1.82
13,S13D,2.53
14,S13G,2.33
15,S13E,2.69
16,Q7P,1.71
17,Q7K,1.67
18,Q7H,2.09
19,Q7R,1.99
20,Q7C,1.6
21,Q7W,2.57
22,Q7V,1.82
23,Q7M,1.7
24,V22S,3.11
25,V22A,2.52

row,Variant,protein stability index
1,V22I,1.85
2,V22L,2.71
3,G14M,2.09
4,G14R,2.21
5,G14E,2.98
6,G14D,2.6
7,G14V,2.59
8,G14S,2.34
9,D12Y,2.54
10,D12T,1.86
11,D12I,2.07
12,D12E,2.23
13,D12A,1.46
14,D12P,1.89
15,D12S,2.15
16,D12V,1.73
17,L24V,2.72
18,L24G,2.52
19,L24F,2.06
20,L24T,3.22
21,L24K,2.79
22,L24R,2.75
23,L24S,3.29
24,L24D,3.17
25,S20C,1.62

row,Variant,protein stability index
1,S20I,2.85
2,S20W,3.19
3,S20R,1.42
4,S20Y,1.83
5,V8D,4.05
6,V8G,3.3
7,V8A,3.11
8,V8S,3.07
9,V8M,2.28
10,H2Q,3.43
11,H2D,4.49
12,H2A,3.07
13,H2F,2.21
14,H2T,2.81
15,H2C,2.11
16,Q5H,2.44
17,Q5S,2.11
18,Q5G,2.73
19,Q5T,2.16
20,Q5R,2.42
21,S19A,2.17
22,S19N,2.39
23,S19G,2
24,S19V,1.57
25,S19F,2.07

row,Variant,protein stability index
1,S19E,3.04
2,S19H,1.81
3,D15S,1.67
4,D15Q,2.04
5,D15R,2.18
6,D15A,2.08
7,D15E,1.98
8,D15K,1.85
9,D15C,1.79
10,L4N,3.6
11,L4S,3.46
12,L4I,2.28
13,L4C,2.73
14,L4M,2.24
15,L4T,2.97
16,L4V,2.84
17,L4A,2.76
18,N21L,2.34
19,N21E,2.61
20,N21T,2.09
21,N21A,2.25
22,N21V,1.58
23,N21C,2.09
24,N21I,1.79

# Variants of: B2
# Experiment: as above
# Details: c terminus: a fixed tail appended
row,Variant,protein stability index
1,A8E,4.74
2,A8I,2.75
3,E7A,2.09
4,G23Q,3.26
5,S12M,2.63
6,S12L,2.36
7,S16W,2.17
8,G22Y,2.57
9,G17C,4.17
10,A13H,3.17
11,R20P,4.34
12,R20F,2.97
13,R20H,2.96
14,A10F,2.41
15,A10M,3.16
16,G21H,3.03
17,G21C,3.48
18,S3V,4.41
